{"source": "patent US9018138", "key": {"integrins": {"target": "integrins", "assay": "cell-based or functional assay"}, "[1]": {"target": "coxsackievirus-adenovirus receptor (CAR) on 293, PC-3 and PC3-CAR cells (UniProt P78310)", "assay": "cell-based or functional assay"}}}
{"substance": "CAR ablated and RGD4C re-targeted Fiber (ΔTAYT-RGD), displayed on the capsid of virus AdTrack-RGD4C-2 (from UniProt P11818 1-542; P11818 543-581)", "values": [{"measurement": "infection relative to wild type fiber virus", "setting": "integrins", "value": 5, "unit": "%"}]}
{"substance": "wild type Adenovirus Serotype 5 (Ad5) Fiber, displayed on the capsid of virus AdTrack-WTFib (from UniProt P11818 1-581)", "values": [{"measurement": "infection of 293 cells after anti-CAR siRNA knock-down (GFP)", "setting": "[1]", "value": "> 50", "unit": "%"}, {"measurement": "infection of PC3-CAR against PC-3 cells (GFP fluorescence intensity, MOI 100)", "setting": "[1]", "value": 26, "unit": "fold"}]}
